# Measured values taken from the nanobody polyreactivity screen of Harvey et al. (2022).
# Assay: yeast display, Sf9 membrane polyspecificity reagent, FACS + sequencing; frameworks hold sequencing errors
# Summary of the method: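 A synthetic nanobody library was expressed on Saccharomyces cerevisiae BJ5465 by galactose induction for 36–48 hours. The library was stained for 1 hour at 4 °C with 10% biotinylated, detergent-solubilized Sf9 membrane reagent and enriched with streptavidin microbeads before FACS. Low and high (top ~1%) gates were set on anti-HA fluorescence for expression and streptavidin fluorescence for reagent binding, and each polyreactivity label reflects the gate of origin.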
row,Sequence,polyreactivity (PSR sort gate)
1,QVQLVESGGGLVQAGGSLRLSCAASGSTFRFYAMGWYRQAPGKERELVAAISSGGSSTYYADSVKGRFTISRDNAKNTVYLQMNSLKPEDTAVYYCAADSYVVRWRERDYWGQGTQVTVSS,low polyreactivity
2,QVQLVESGGGLVQAGGSLRLSCAASGSTFRFYAMGWYRQAPGKERELVAAITGSGGRTYYADSVKGRFTISRDNAKNTVYLQMNSLKPEDTAVYYCSARAYWLTGLTFSYKYNYWGQGTQVTVSS,high polyreactivity
3,QVQLVESGGGLVQAGGSLRLSCAASGSTFRFYAMGWYRQAPGKERELVAAITWRGGRTYYADSVKGRFTISRDNAKNTVYLQMNRLKPEDTAVYYCAGGRGWQSQIPAKYYYWGQGTQVTVSS,high polyreactivity
4,QVQLVESGGGLVQAGGSLRLSCAASGSTFRGYAMGCYRQAPGKEREFVASISLSGGTDYADSVKGRFTISRDNAKNTVYLQMNSLKPEDTADYYCAAGYPAVSDSIEHNFWGQGTQVTVSS,low polyreactivity
5,QVQLVESGGGLVQAGGSLRLSCAASGSTFRGYAMGWYRQAPGKERELVAAISRSGGSTYYADSVKGRFTSSRDNAKNTVYLQMNSLKPEDTGVYYCAKRTSGYYWQWFDYCGQGTQVTVSS,high polyreactivity
6,QVQLVESGGGLVQAGGSLRLSCAASGSTFRGYAMGWYRQAPGKERELVAAITGSGDRTRYADSVKGRFTISRDNAKNTVYLQMNSLKPEDTAVYYCAKVWPHWAYYSWGQGTQVTVSS,high polyreactivity
7,QVQLVESGGGLVQAGGSLRLSCAASGSTFRGYAMGWYRQEPGKEREFVASISLSGGSTYYADSVKGRFTISRDNAKYTVYLQMNSLKPEDSAVYYCAARARGYGWRGDYWRQGTQVTVSS,low polyreactivity
8,QVQLVESGGGLVQAGGSLRLSCAASGSTFRGYVMGWYRQAPGKERELVAAISRGGGSTYYADSVKGRFTISRDNAKNTVYLQMNSLKPEDTAVYYCATDYSGRQPGKYGYWGQGTQVTVSS,high polyreactivity
9,QVQLVESGGGLVQAGGSLRLSCAASGSTFRGYVMGWYRQAPGKERELVAVISYNGGSTYYADSVKGRFTISRDNAKNTVYLQMNSLKPEDTAVYYCAATYFFLYTSWDEYWGQGTQVTVSS,low polyreactivity
10,QVQLVESGGGLVQAGGSLRLSCAASGSTFRHYAMGWYRQAPGKERELVAAISYSGSRTYYADSVKGRFTISRDNAKNTVYLQMNSLKPEDTAVYYCNVNLQGRYSDKYDYWGQGTQVTVSS,high polyreactivity
11,QVQLVESGGGLVQAGGSLRLSCAASGSTFRINAMGWYRQAPGKERELVAAITRGGSTNYADSVKGRFTISRDNAKNTVYLQMNSLKPEDTAVYYCAAGLYSWSGYASYNSAYGYWGQGTQVTVSS,low polyreactivity
12,QVQLVESGGGLVQAGGSLRLSCAASGSTFRIYAMGWYRQAPGKERELVARISWNGGRTYYADSVKGRFTISRDNAKNTVYLQMNSLKPEDTAVYYCNARSQGWYYFPDNDYWGQGTQVTVSS,high polyreactivity
13,QVQLVESGGGLVQAGGSLRLSCAASGSTFRKYAMGWYRQAPGKEREFVAAITWSTGTTYYADSVKGRFTISRDNAKNTVYLQMNSLKPEDTAVYYCAADSQPPHELYESIEHESWGQGTQVTVSS,low polyreactivity
14,QVQLVESGGGLVQAGGSLRLSCAASGSTFRKYGMGWYRQAPGKERELVARITSSTGTTYYADSVKGRFTISRDNAKNTVYLQMNSLKPEDTAVNYCNARVRYREWGLYYYWGQGTQVTVSS,high polyreactivity
15,QVQLVESGGGLVQAGGSLRLSCAASGSTFRLNARGWYRQAPGKERELVASIRWSVGITYYADSVKGRFTISRDNAKNTVYLQMNSLKPEDTAVYYCATRDTTWRYYYWGQGTQVTVSS,high polyreactivity
16,QVQLVESGGGLVQAGGSLRLSCAASGSTFRLYAMGWYRQAPGKERELVAAISSGGTTKYADSVKGRFTISRDNAKNTVYLQMNSLKPEDTAVYYCNRRARSYADDYWGQGTQVTVSS,high polyreactivity
17,QVQLVESGGGLVQAGGSLRLSCAASGSTFRLYAMGWYRQAPGKERELVASITTGGSTYYADSVKGRFTISRDNAKNTVYLQMNSLKPEDTAVYYCAAEEYWEMDYWGQGTQVTVSS,low polyreactivity
18,QVQLVESGGGLVQAGGSLRLSCAASGSTFRNYAMGWYRQAPGKERELVAAITKRGGTTYYADSVKGRFTISRDNAKNTVYLQMNSLKPEDTAVYYCAARVKGQWNTYDYWGQVTQVTVSS,high polyreactivity
19,QVQLVESGGGLVQAGGSLRLSCAASGSTFRPNAMGWYRQAPGKERELVAAITSGGSTYYADSVKGRFTISRDNAKNTVYLQMNSLKPEDTAVYYCNKDKFWSYPVQVNLDYWGQGTQVTVSS,low polyreactivity
20,QVQLVESGGGLVQAGGSLRLSCAASGSTFRPYAMGWDRQAPGKERELVAAITSTGGSTYYADSVKGRFTISRDNAKNTVYLQMNSLKPEDTAVYYCAAPLVRYAGPYDYWGQGTQVTVSS,low polyreactivity
21,QVQLVESGGGLVQAGGSLRLSCAASGSTFRPYVMGWSRQAPGKERELVAAISWRGGTTYYADSVKGRFTISRDNAKNTVYLQMNSQKPEDPAVYYCAARGDQGVPVARRYDYWGQGTQVTVSS,high polyreactivity
22,QVQLVESGGGLVQAGGSLRLSCAASGSTFRPYVMGWYRQAPGKERELVAAISWRGGTTYYADSVKGRFTISRDNAKNTVYLQMNSLKPEDTAVYYCAARGDQGVPVARRYDYWGQGTQVTVSS,high polyreactivity

row,Sequence,polyreactivity (PSR sort gate)
1,QVQLVESGGGLVQAGGSLRLSCAASGSTFRQNAMGWYRQAPRKERELVATIRTSGGTTYYADSVKGRFTISRDTAKNTVYLQMNSLKPVDTAVYYCAAVSYLFLYQGYPIAYPMYYWGQGTQVTVSS,low polyreactivity
2,QVQLVESGGGLVQAGGSLRLSCAASGSTFRQYAMGWYRQAPGKERELVAAISSSGSTTYYADSVKGRFTISRDNAKNTVYLQMNSLKPEDTAVYYCAAEYTFHYDYWGQGTQVTVSS,low polyreactivity
3,QVQLVESGGGLVQAGGSLRLSCAASGSTFRQYAMGWYRQAPGKERELVAGISYRGGRTYYADSVKGRFTISRDNAKNTVYLHMNSLKPEDTAVYYCNALRHYRDISVDGDDYWGQGTQVTVSS,high polyreactivity
4,QVQLVESGGGLVQAGGSLRLSCAASGSTFRRNAMGWYRQAPGKERELVAAIRYSGSSTYYADSVKGRFTISRGNAKNTVYLQMNSLKPEDTAVYYCATVRNNRYKYDYWGQGTQVTVSS,high polyreactivity
5,QVQLVESGGGLVQAGGSLRLSCAASGSTFRRNAMGWYRQAPGKERELVAAISRSGDSTYYADSVKGRFTISRDYAKNTVYLQMNSLKPEDNAVYYCIAHQSRQVGYWGQGTQVTVSS,high polyreactivity
6,QVQLVESGGGLVQAGGSLRLSCAASGSTFRRNAMGWYRQAPGKERELVAAISSSGGSTYYADSVKGRFTISRDNAKNTVFLQMNSLKPEDTAVYYCAAGYPTLRGYYYWGQGTQVTVSS,low polyreactivity
7,QVQLVESGGGLVQAGGSLRLSCAASGSTFRRNAMGWYRQPPGKERELVAAISGSGSTYYADSVKGRFTISRDHAKNTVYLQLNSLKPEDTAVYYCAKDVTDPTSRSDRSGDDYWGQGTQVTVSS,low polyreactivity
8,QVQLVESGGGLVQAGGSLRLSCAASGSTFRRNAMGWYRQSPGKERELVAAISWRGGSTYYADSVKGRFTISRDYAKNTVYLQMNSLKPEDTAVYYCNTYHPYWGSGFDYWGQGTQVTVSS,low polyreactivity
9,QVQLVESGGGLVQAGGSLRLSCAASGSTFRRNTMGWYTQAPGKERELVAGISSSGGSTYYADSVKGRFTISRDNAKNTVYLQMNSLNPEDTAVYYCDARFYVSYVGYNYWGHGTQVTVSS,high polyreactivity
10,QVQLVESGGGLVQAGGSLRLSCAASGSTFRRYAMGWYRQAPGKEREFVAGITFSGVSTYYADSVKGRFTISRDNAKNTVYLQMNSLKPEDTAVYYCNRRPKYVDNDYWGQGTQVTVSS,high polyreactivity
11,QVQLVESGGGLVQAGGSLRLSCAASGSTFRRYAMGWYRQAPGKERELVAAITGSGGRTYYADSVKGRFTISRDNAKNTVYLQMNSLKPEDTAVYYCAKDSYTRPRGYDYWGQGTQVTVSS,high polyreactivity
12,QVQLVESGGGLVQAGGSLRLSCAASGSTFRRYAMGWYRQAPGKERELVATISSGGRTNYADSVKGRFTISRDNAKNTVYLQMNSLKPEDTAVYYCAARPYYYERSAGYYWGQGTQVTVSS,high polyreactivity
13,QVQLVESGGGLVQAGGSLRLSCAASGSTFRSNAMGWYRQAPGKERELVAAISSRVGTTYYADSVKGRFTISRDNAKNTVYLQMNSLKPEDTAVYYCAAQGWRYYRTVVPMDYWGQGTQVTVSS,low polyreactivity
14,QVQLVESGGGLVQAGGSLRLSCAASGSTFRSNAMGWYRQAPGKERELVASINWSGDSTYYADSVKGRFTISRDNAKNTVYLQMNSLKPEDTAVYYCNAVVDTTEYPYEYDYWGQGTQVTVSS,low polyreactivity
15,QVQLVESGGGLVQAGGSLRLSCAASGSTFRSNVMGWYRQAPGKERELVAAITSSGGSTYYADSVKGRFTISRDNAKNTVYLQMNSLKPEDTAVYYCAVDYYYGFDWGQGTQVTVSS,low polyreactivity
16,QVQLVESGGGLVQAGGSLRLSCAASGSTFRSYAMGWYRQAPGKERELVAAISVSGGSTYYADSVKGRFTISRDNAKNTVYLQMNSLKPEDTAVYYCAASYVPSYAPGRYYYWGQGTQVTVSS,high polyreactivity
17,QVQLVESGGGLVQAGGSLRLSCAASGSTFRTNAMGWYRQAPGKERELVARIRYSVGSTYYADSVKGRFTISRDNAKNTVYLQMNSLKPEDTAVYYCAAENQRVGTFREHDSWGQGTQVTVSS,low polyreactivity
18,QVQLVESGGGLVQAGGSLRLSCAASGSTFRTNVMGWYRQAPGKERELVAAITKRGSITYYADSVKGRFTISRDNAKNTVYFQMNSLKPEDTAVYYCAARKVAVGGYGYWGQGTQVTVSS,high polyreactivity
19,QVQLVESGGGLVQAGGSLRLSCAASGSTFRTYAMGWYRQAPGKERELVADITWRGGSTYYADSVKGRFTISRDNAKNTVYLQMNSLKPEDTAGYYCATDRGPEVVLYDYWGQGTQVTVSS,low polyreactivity
20,QVQLVESGGGLVQAGGSLRLSCAASGSTFRTYAMGWYRQAPGKVRELVAAITNGGSTYADSVKGRFTISRDNAKNTVYLQMNSLKPEDTAVYYCNADFGFGYVSLLYEYWGQGTQVTVSS,low polyreactivity
21,QVQLVESGGGLVQAGGSLRLSCAASGSTFRTYAMGWYRQAPGQERELVAASDSSGGNTYYADSVKGRCTISRDPAKNTVYLQMNSLKPEDTAVYYCARESVTYFWYYTPEVDYWGQGTQVTVSS,low polyreactivity
